Results reported in patent US20080260745A1.

Target: HLA-A2 on T2 cells
Assay: T2 HLA-stabilization assay, HLA-A2 level by flow cytometry
Details: remark: other sources report otherwise

mean fluorescence intensity (mean fluorescence intensity): 682
Binder: IISAVVGIL [GP2 peptide from HER2/neu]
